Results on 94 variants are retold here after the supplement of paper PMC10567573.

Sequences and labels used below:
B1: CDC14A (parent)
chain: GPHPKSKIENGYPLHAPEAYFPYF
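Note: lentivirally expressed fusions sorted by FACS into six bins by GFP to DsRed ratio, PSI derived from sequencing read proportions per bin multiplied by bin number.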

In this data set the parent is B1. As to the kind of experiment: protein stability index of a GFP-peptide fusion (GPS, HEK-293T) (PSI 1-6); higher = more stable. As to conditions: c terminus: a fixed tail appended.
In the case of GPHPKSKIENGYPLHAPEAYFPVF [Y23V], the protein stability index worked out at 2.07.

For the variant GPHPKSKIENGYPLHAPEAYFPMF [Y23M], the protein stability index worked out at 2.32.

Regarding GPHPKSKIENGYPLHAPEAYFPQF [Y23Q], the protein stability index amounted to 3.24.

Regarding GPHPKSKIENGYPLHAPEAYFPSF [Y23S], the protein stability index was 3.11.

Consider GPHPKSKIENGYPLHAPEAYFPFF [Y23F], for which the protein stability index stood at 2.23.

On to GPHPKSKIENGYPLHAPEAYFPIF [Y23I], for which the protein stability index amounted to 2.4.

As for GPHPKSKIENGYPLHAPEAYFPLF [Y23L], the protein stability index came to 1.95.

GPHPKSKIENGYPLHAPEAYFPCF [Y23C]: the protein stability index turned out to be 2.77.

With GPHPKSKIENGYPLHAPEAYFPNF [Y23N], the protein stability index worked out at 3.28.

Turning to GPHPKSKIENGYPLHAPEAYFPRF [Y23R], the protein stability index was determined as 2.97.

On to GPHPKSKIYNGYPLHAPEAYFPYF [E9Y], for which the protein stability index is 1.64.

As to GPHPKSKIDNGYPLHAPEAYFPYF [E9D], the protein stability index amounted to 1.96.

With GPHPKSKIMNGYPLHAPEAYFPYF [E9M], the protein stability index was 1.58.

For the variant GPHPKSKIFNGYPLHAPEAYFPYF [E9F], the protein stability index came to 1.77.

For GPHPKSKIKNGYPLHAPEAYFPYF [E9K], the protein stability index was 1.44.

For the variant GPHPKVKIENGYPLHAPEAYFPYF [S6V], the protein stability index was found to be 2.16.

For GPHPKEKIENGYPLHAPEAYFPYF [S6E], the protein stability index amounted to 2.3.

As for GPHPKYKIENGYPLHAPEAYFPYF [S6Y], the protein stability index stood at 1.82.

Take GPHPKTKIENGYPLHAPEAYFPYF [S6T]: the protein stability index stood at 2.15.

Consider GPHPKLKIENGYPLHAPEAYFPYF [S6L], for which the protein stability index amounted to 2.22.

With GPHPKNKIENGYPLHAPEAYFPYF [S6N], the protein stability index came out at 2.21.

As to GPHPKFKIENGYPLHAPEAYFPYF [S6F], the protein stability index stood at 2.11.

As to GPHPKPKIENGYPLHAPEAYFPYF [S6P], the protein stability index was determined as 2.

On to GPHPKSKIENGYPLHAPEAEFPYF [Y20E], for which the protein stability index came to 2.76.

Regarding GPHPKSKIENGYPLHAPEAGFPYF [Y20G], the protein stability index worked out at 3.25.

Regarding GPHPKSKIENGYPLHAPEATFPYF [Y20T], the protein stability index is 2.84.

Consider GPHPKSKIENGYPLHAPEAWFPYF [Y20W], for which the protein stability index is 2.19.

Take GPHPKSKIENGYPLHAPEAIFPYF [Y20I]: the protein stability index was found to be 2.57.

With GPHPKSKIENGYPLHAPEAMFPYF [Y20M], the protein stability index came to 2.71.

In the case of GPHPKSKIENGYPLHAPEADFPYF [Y20D], the protein stability index was 3.29.

For the variant GPHPKSKIENGYPLHAPEAFFPYF [Y20F], the protein stability index stood at 1.89.

Consider GPHPKSKIENGYPLHAPEANFPYF [Y20N], for which the protein stability index turned out to be 2.63.

On to GPHPKSKIENGYPLLAPEAYFPYF [H15L], for which the protein stability index came to 1.76.

For the variant GPHPKSKIENGYPLRAPEAYFPYF [H15R], the protein stability index is 2.29.

On to GPHPKSKIENGYPLFAPEAYFPYF [H15F], for which the protein stability index was found to be 1.7.

On to GPHPKSKIENGYPLTAPEAYFPYF [H15T], for which the protein stability index was 2.74.

As to GPHPKSKIENGYPLAAPEAYFPYF [H15A], the protein stability index is 2.45.

Take GPHPKSKIENGYPLKAPEAYFPYF [H15K]: the protein stability index is 2.7.

On to GPHPKSKIENGYPLIAPEAYFPYF [H15I], for which the protein stability index worked out at 1.87.

GPHPKSKIENGYPLHGPEAYFPYF [A16G]: the protein stability index was 2.77.

For the variant GPHPKSKIENGYPLHCPEAYFPYF [A16C], the protein stability index amounted to 2.84.

On to GPHPKSKIENGYPLHEPEAYFPYF [A16E], for which the protein stability index stood at 2.4.

As to GPHPKSKIENGYPLHWPEAYFPYF [A16W], the protein stability index is 1.99.

As to GPHPKSKIENGYPLHDPEAYFPYF [A16D], the protein stability index was 2.45.

For GPHPKSKIENGYPLHMPEAYFPYF [A16M], the protein stability index is 2.01.

Regarding GPHPKSKIENGYPLHYPEAYFPYF [A16Y], the protein stability index was 2.29.

Consider GPHPKSKTENGYPLHAPEAYFPYF [I8T], for which the protein stability index came out at 2.48.

Turning to GPHPKSKPENGYPLHAPEAYFPYF [I8P], the protein stability index is 2.56.

For GPHPKSKAENGYPLHAPEAYFPYF [I8A], the protein stability index stood at 2.54.

Turning to GPHPKSKHENGYPLHAPEAYFPYF [I8H], the protein stability index is 2.37.

Turning to GPHPKSKFENGYPLHAPEAYFPYF [I8F], the protein stability index is 2.23.

As for GPHPKSKEENGYPLHAPEAYFPYF [I8E], the protein stability index worked out at 3.29.

For GPHPKSKSENGYPLHAPEAYFPYF [I8S], the protein stability index came to 2.29.

On to GPHPKSKLENGYPLHAPEAYFPYF [I8L], for which the protein stability index was 2.03.

As to GPHPKSKKENGYPLHAPEAYFPYF [I8K], the protein stability index was 2.53.

As to GPHPKSKCENGYPLHAPEAYFPYF [I8C], the protein stability index stood at 2.45.

GPHPKSKGENGYPLHAPEAYFPYF [I8G]: the protein stability index amounted to 2.28.

Regarding GPHPKSKWENGYPLHAPEAYFPYF [I8W], the protein stability index is 1.77.

With GPHPKSKIENGYPLHAPEAYFAYF [P22A], the protein stability index was 1.61.

As to GPHPKSKIENGYPLHAPEAYFIYF [P22I], the protein stability index turned out to be 3.32.

Consider GPHPKSKIENGYPLHAPEAYFKYF [P22K], for which the protein stability index stood at 2.67.

Regarding GPHPKSKIENGYPLHAPEAYFEYF [P22E], the protein stability index came to 2.22.

For GPHPKSKIENGYPLHAPEAYFHYF [P22H], the protein stability index is 1.6.

GPHPKSKIENGYPLHAPEAYFSYF [P22S]: the protein stability index was 1.98.

As to GPHPKSKIENGYPLHAPEAYFMYF [P22M], the protein stability index is 2.76.

GPHPKSKIENGYPLHAPEAYFTYF [P22T]: the protein stability index was 1.64.

Regarding GPHPKSKIENGYPLHAPEAYFWYF [P22W], the protein stability index was 2.54.

Turning to GPHPKSKIENGYPLHAPEAYFRYF [P22R], the protein stability index stood at 2.5.

As to GPHPKSKIENGYPLHAPEAYFLYF [P22L], the protein stability index was determined as 2.38.

With GPHPKSKIENGYPLHAGEAYFPYF [P17G], the protein stability index amounted to 2.48.

Consider GPHPKSKIENGYPLHALEAYFPYF [P17L], for which the protein stability index was 1.97.

For GPHPKSKIENGYPLHANEAYFPYF [P17N], the protein stability index worked out at 2.16.

On to GPHPKSKIENGYPLHAIEAYFPYF [P17I], for which the protein stability index worked out at 2.06.

Regarding GPHPKSKIENGYPLHAWEAYFPYF [P17W], the protein stability index was determined as 2.04.

Take GPHPKSKIENGYPLHAKEAYFPYF [P17K]: the protein stability index turned out to be 3.2.

Turning to GPHPKSKIENGYPLHAYEAYFPYF [P17Y], the protein stability index is 1.79.

With GPHPKSKIENGYPLHAQEAYFPYF [P17Q], the protein stability index stood at 2.14.

For the variant GPHPKSKIENGYPLHAREAYFPYF [P17R], the protein stability index is 1.8.

GPHPKSKIENGYPLHAAEAYFPYF [P17A]: the protein stability index was 2.21.

With GPHPKSKIENGYCLHAPEAYFPYF [P13C], the protein stability index stood at 1.97.

As to GPHPKSKIENGYILHAPEAYFPYF [P13I], the protein stability index turned out to be 1.43.

Take GPHPKSKIENGYALHAPEAYFPYF [P13A]: the protein stability index was found to be 2.57.

As for GPHPKSKIENGYWLHAPEAYFPYF [P13W], the protein stability index came out at 1.58.

With GPHPKSKIENGYTLHAPEAYFPYF [P13T], the protein stability index came to 1.96.

As for GPHPKSKIENGYYLHAPEAYFPYF [P13Y], the protein stability index was found to be 1.88.

GPHPKSKIENGYLLHAPEAYFPYF [P13L]: the protein stability index amounted to 1.95.

On to TPHPKSKIENGYPLHAPEAYFPYF [G1T], for which the protein stability index came to 2.7.

As for HPHPKSKIENGYPLHAPEAYFPYF [G1H], the protein stability index is 2.08.

For SPHPKSKIENGYPLHAPEAYFPYF [G1S], the protein stability index turned out to be 1.99.

Take YPHPKSKIENGYPLHAPEAYFPYF [G1Y]: the protein stability index turned out to be 1.51.

As to APHPKSKIENGYPLHAPEAYFPYF [G1A], the protein stability index worked out at 1.82.

As for RPHPKSKIENGYPLHAPEAYFPYF [G1R], the protein stability index came to 1.88.

With GPHPKSKIENGYPLHAPEAYRPYF [F21R], the protein stability index was determined as 2.94.

Regarding GPHPKSKIENGYPLHAPEAYVPYF [F21V], the protein stability index turned out to be 2.9.
